Assay results from article PMC11425205, “MdSINA2‐MdNAC104 Module Regulates Apple Alkaline Resistance by Affecting γ‐Aminobutyric Acid Synthesis and Transport”.
Changes are numbered by the printed parent chain.

T1: MdNAC104 (Malus domestica (apple)?, UniProt D9ZJ88 1-204)
T1 sequence: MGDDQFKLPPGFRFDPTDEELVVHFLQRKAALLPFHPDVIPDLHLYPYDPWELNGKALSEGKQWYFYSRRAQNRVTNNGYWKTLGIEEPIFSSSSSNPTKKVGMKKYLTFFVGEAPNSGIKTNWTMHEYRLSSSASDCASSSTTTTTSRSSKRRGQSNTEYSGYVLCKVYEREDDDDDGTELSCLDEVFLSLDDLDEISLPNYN

B1: MdGAD1 probe 1 (dsDNA)
DNA 1: GCGCTGCACCTACACGTTCCATTTCTGGAC
DNA 2: GTCCAGAAATGGAACGTGTAGGTGCAGCGC
B2: MdGAD1 mutant probe 1 (dsDNA)
DNA 1: B1 DNA 1 with C13A, C15A, G16A
DNA 2: B1 DNA 2 with C15T, G16T, G18T
B3: MdALMT13 probe 3 (dsDNA)
DNA 1: CTTTTGCATTCAGCACGCACTCGCAAAACC
DNA 2: GGTTTTGCGAGTGCGTGCTGAATGCAAAAG
B4: MdALMT13 probe 4 (dsDNA)
DNA 1: ATGTATATATAAACACGATATCTCCCTTCC
DNA 2: GGAAGGGAGATATCGTGTTTATATATACAT
B5: MdGAD1 probe 2 (dsDNA)
DNA 1: CAAACCATTTGCCACGTCCTTAAAGCGATT
DNA 2: AATCGCTTTAAGGACGTGGCAAATGGTTTG
B6: MdGAD1 mutant probe 2 (dsDNA)
DNA 1: B5 DNA 1 with C13A, C15A, G16A
DNA 2: B5 DNA 2 with C15T, G16T, G18T
B7: MdGAD1 probe 3 (dsDNA)
DNA 1: AAAAAATGGGGCCACGTGGGCTTCACTGTC
DNA 2: GACAGTGAAGCCCACGTGGCCCCATTTTTT
B8: MdGAD1 mutant probe 3 (dsDNA)
DNA 1: B7 DNA 1 with C13A, C15A, G16A
DNA 2: B7 DNA 2 with C15T, G16T, G18T
B9: MdALMT13 probe 2 (dsDNA)
DNA 1: CTTATTTCAAAAACACGGGTGAACAGTAAA
DNA 2: TTTACTGTTCACCCGTGTTTTTGAAATAAG

Biological target: T1, MdNAC104
Experiment: EMSA; LightShift Chemiluminescent EMSA Kit (Thermo) per manufacturer; buffer, salt, pH and temperature not stated
Settings: protein: recombinant, tags: His (pET-32a vector), blunt

| Binder | binding result (label: 5' biotin) | binding result |
| --- | --- | --- |
| B1 | binds | – |
| B2 | – | no binding |
| B3 | binds | – |
| B4 | binds | – |
| B5 | binds | – |
| B6 | – | no binding |
| B7 | binds | – |
| B8 | – | no binding |
| B9 | binds | – |
